Earlier results in PMC2953804.

Molecular target: Mlh1 (Saccharomyces cerevisiae) (UniProt P38920)

## Mlh1 (from UniProt P38920)
  Kd: 3.14 µM
